Source: PMC4016182, “First Functional and Mutational Analysis of Group 3 N-Acetylneuraminate Lyases from Lactobacillus antri and Lactobacillus sakei 23K” (PLoS ONE, 2014)

T1: LsNAL (Latilactobacillus sakei, UniProt Q38V37)
T1 construct: gene nanA; N-terminal His-tag (pET-28a), E. coli Rosetta 2; nanA gene 918 bp; homotetramer 140 kDa; EC 4.1.3.3
T1 sequence (Q38V37 1-305): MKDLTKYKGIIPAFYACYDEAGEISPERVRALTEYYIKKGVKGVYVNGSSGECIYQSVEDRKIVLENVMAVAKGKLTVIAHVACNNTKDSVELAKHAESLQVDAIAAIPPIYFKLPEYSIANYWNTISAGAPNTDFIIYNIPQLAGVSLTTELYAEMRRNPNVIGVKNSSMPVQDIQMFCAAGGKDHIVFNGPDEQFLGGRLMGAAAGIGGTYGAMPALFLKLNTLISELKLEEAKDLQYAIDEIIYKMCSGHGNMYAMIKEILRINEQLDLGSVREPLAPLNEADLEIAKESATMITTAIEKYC

T2: LaNAL (Limosilactobacillus antri, UniProt C8P490)
T2 construct: gene FC31_GL000711; N-terminal His-tag (pET-28a), E. coli Rosetta 2; nanA gene printed as 828 bp; homotetramer 140 kDa; EC 4.1.3.3
T2 sequence (C8P490 1-305): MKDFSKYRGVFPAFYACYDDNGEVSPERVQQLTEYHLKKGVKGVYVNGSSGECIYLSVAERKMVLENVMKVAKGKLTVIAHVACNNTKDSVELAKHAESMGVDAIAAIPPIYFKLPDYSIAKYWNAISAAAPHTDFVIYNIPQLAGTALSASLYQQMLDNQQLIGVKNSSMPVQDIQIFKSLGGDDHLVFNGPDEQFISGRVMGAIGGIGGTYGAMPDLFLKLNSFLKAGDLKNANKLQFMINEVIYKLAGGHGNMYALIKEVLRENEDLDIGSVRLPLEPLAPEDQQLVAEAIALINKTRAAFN


Key:
[1] = target: N-acetylneuraminate lyase from Lactobacillus sakei 23K (Lactobacillus sakei 23K) (UniProt Q38V37); assay: SEC; gel filtration on Superdex200 10/300 GL in 50 mM phosphate buffer pH 7.0 with 0.15 M NaCl; native mass compared with the subunit mass by HPLC/MS/ESI and SDS-PAGE
[2] = target: N-acetylneuraminate lyase from Lactobacillus antri (Lactobacillus antri) (UniProt C8P490); assay: as above
[3] = target: T1, LsNAL; assay: NAD+-coupled ManNAc dehydrogenase assay, […] nm; assay type: biochemical
[4] = target: T2, LaNAL; assay: NAD+-coupled ManNAc dehydrogenase assay, […] nm; assay type: biochemical
[5] = target: T1, LsNAL; assay: thermal shift, SYPRO Orange; assay type: binding; settings: 5 mM sodium pyruvate; several pHs (4-9)
[6] = substrate: CC(=O)C(=O)O; assay: Neu5Ac synthesis, HPLC-ELSD; assay type: biochemical, Limosilactobacillus antri; settings: co-substrate ManNAc, 20 mM phosphate pH 7.0, 37 C
Text: Neu5Ac synthesis, HPLC-ELSD on LaNAL

[7] = substrate: CC(=O)C(=O)O; assay: Neu5Ac synthesis, HPLC-ELSD; assay type: biochemical, Latilactobacillus sakei; settings: co-substrate ManNAc, 20 mM phosphate pH 7.0, 37 C
Text: Neu5Ac synthesis, HPLC-ELSD on LsNAL

| Molecule | Km [6] | kcat [6] | kcat/Km [6] | also measured |
| --- | --- | --- | --- | --- |
| N-acetylneuraminate lyase from Lactobacillus sakei 23K (from UniProt Q38V37 1-305) (enzyme) |  |  |  | stoichiometry N [1]: 4 |
| N-acetylneuraminate lyase from Lactobacillus antri (from UniProt C8P490 1-305) (enzyme) |  |  |  | stoichiometry N [2]: 4 |
| CC(=O)C(=O)O [pyruvate] |  |  |  | Ki [3]: 400 µM; Ki [4]: 160 µM; Tm [5]: protective effect was more evident at basic pHs |
| LaNAL (Limosilactobacillus antri DSM 16041; G210S/Y213G) (protein, N-terminal His-tag (pET-28a), E. coli Rosetta 2; nanA gene printed as 828 bp; homotetramer 140 kDa; EC 4.1.3.3) MKDFSKYRGVFPAFYACYDDNGEVSPERVQQLTEYHLKKGVKGVYVNGSSGECIYLSVAERKMVLENVMKVAKGKLTVIAHVACNNTKDSVELAKHAESMGVDAIAAIPPIYFKLPDYSIAKYWNAISAAAPHTDFVIYNIPQLAGTALSASLYQQMLDNQQLIGVKNSSMPVQDIQIFKSLGGDDHLVFNGPDEQFISGRVMGAIGGISGTGGAMPDLFLKLNSFLKAGDLKNANKLQFMINEVIYKLAGGHGNMYALIKEVLRENEDLDIGSVRLPLEPLAPEDQQLVAEAIALINKTRAAFN | 4300 ± 2000 µM | 3 ± 0.3 s⁻¹ | 710 M⁻¹ s⁻¹ |  |
| LaNAL (Limosilactobacillus antri DSM 16041) (protein, N-terminal His-tag (pET-28a), E. coli Rosetta 2; nanA gene printed as 828 bp; homotetramer 140 kDa; EC 4.1.3.3) MKDFSKYRGVFPAFYACYDDNGEVSPERVQQLTEYHLKKGVKGVYVNGSSGECIYLSVAERKMVLENVMKVAKGKLTVIAHVACNNTKDSVELAKHAESMGVDAIAAIPPIYFKLPDYSIAKYWNAISAAAPHTDFVIYNIPQLAGTALSASLYQQMLDNQQLIGVKNSSMPVQDIQIFKSLGGDDHLVFNGPDEQFISGRVMGAIGGIGGTYGAMPDLFLKLNSFLKAGDLKNANKLQFMINEVIYKLAGGHGNMYALIKEVLRENEDLDIGSVRLPLEPLAPEDQQLVAEAIALINKTRAAFN | 1100 ± 200 µM | 5.6 ± 0.1 s⁻¹ | 5100 M⁻¹ s⁻¹ |  |
| LaNAL (Limosilactobacillus antri DSM 16041; P193Y) (protein, N-terminal His-tag (pET-28a), E. coli Rosetta 2; nanA gene printed as 828 bp; homotetramer 140 kDa; EC 4.1.3.3) MKDFSKYRGVFPAFYACYDDNGEVSPERVQQLTEYHLKKGVKGVYVNGSSGECIYLSVAERKMVLENVMKVAKGKLTVIAHVACNNTKDSVELAKHAESMGVDAIAAIPPIYFKLPDYSIAKYWNAISAAAPHTDFVIYNIPQLAGTALSASLYQQMLDNQQLIGVKNSSMPVQDIQIFKSLGGDDHLVFNGYDEQFISGRVMGAIGGIGGTYGAMPDLFLKLNSFLKAGDLKNANKLQFMINEVIYKLAGGHGNMYALIKEVLRENEDLDIGSVRLPLEPLAPEDQQLVAEAIALINKTRAAFN | 500 ± 10 µM | 0.99 ± 0.03 s⁻¹ | 1980 M⁻¹ s⁻¹ |  |
| LsNAL (Latilactobacillus sakei subsp. sakei 23K) (protein, N-terminal His-tag (pET-28a), E. coli Rosetta 2; nanA gene 918 bp; homotetramer 140 kDa; EC 4.1.3.3) MKDLTKYKGIIPAFYACYDEAGEISPERVRALTEYYIKKGVKGVYVNGSSGECIYQSVEDRKIVLENVMAVAKGKLTVIAHVACNNTKDSVELAKHAESLQVDAIAAIPPIYFKLPEYSIANYWNTISAGAPNTDFIIYNIPQLAGVSLTTELYAEMRRNPNVIGVKNSSMPVQDIQMFCAAGGKDHIVFNGPDEQFLGGRLMGAAAGIGGTYGAMPALFLKLNTLISELKLEEAKDLQYAIDEIIYKMCSGHGNMYAMIKEILRINEQLDLGSVREPLAPLNEADLEIAKESATMITTAIEKYC |  |  |  | Km [7]: 12500 ± 200 µM; kcat [7]: 3.9 ± 0.1 s⁻¹; kcat/Km [7]: 310 M⁻¹ s⁻¹ |
